According to the nanobody polyreactivity screen of Harvey et al. (2022):

Test: yeast display, Sf9 membrane polyspecificity reagent, FACS + sequencing; frameworks hold sequencing errors
In short: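 A nanobody's polyreactivity label depends on the gate it was sorted from. Yeast display cells were stained with 10% biotinylated, detergent-solubilized Sf9 membrane reagent for 1 hour at 4 °C, enriched on streptavidin microbeads and sorted by FACS. The low and high (top ~1%) gates were set on anti-HA fluorescence for expression and streptavidin fluorescence for reagent binding.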

| Sequence | polyreactivity (PSR sort gate) |
| --- | --- |
| QVKLVESGAGLVQAGGSLRLSCAASGIIFAQYTMGWYRQAPGKERELVAAINRNGGSTYYADSVKGRFTISRDNAKNTVYLQMNSLKPEDTAVYYCNAEALGFRYDYWGQGTQVTVSS | low polyreactivity |
| QVKLVESGGCLVQEGGSLRLSCAASGSIFGHYVMRWYRQAPGKERELVAAINRGGSTYYADSVKGRFTISRDNAKNTVYLQMNSLKPEDTAVYYCAAGYPSWYYGYPYDSWGQGTQVTVSS | low polyreactivity |
| QVKLVESGGGIVQAGGSLRLTCAASGSTVRLYAMGCYRQAPGKERELVAAISTRGSSTYYADSVKGRFTISRDNAKNTVYLQMNSLKPEDTAVFYCAADAYFIYSRYWYDYWGQGTQVTVSS | high polyreactivity |
| QVKLVESGGGLDQAGGSLRLSCSASRSTFWHYAMGWYRQAPGKERELVASISGRGTSTYYADSVKGRFTISRDNAKNTVFFQMNSLKPEDTAVYYCAATKWFGAFDYWGQGTQVTVSS | low polyreactivity |
| QVKLVESGGGLVQAGGSIRLSCAASGRIFTTYTMGWYRQAPGKERELVAAITRGDRTNYADSVKGRFTISRDNAKNTVYLQMNSLIPEDTAVYYCAAVGNWYYRDPLHSRFYYWGQGTQVTVSS | high polyreactivity |
| QVKLVESGGGLVQAGGSLRLRCAASGSIFRFYVMGWYRQAPGKERELVAAISSGGSTDYADSVKGRFTISRDNAKNTVYLQMYSLKPEDTAVYYCGARVRTVRNTYYSWGQGTQVTVSS | high polyreactivity |
| QVKLVESGGGLVQAGGSLRLSCAASGFIIGGYGMGWYRQAPGKERELVAVITASGGSTYYADSVKWLFTISRDNAKNTVYLQMNSLKPEDTGVYYCAARVGRYGYSQYYYWGQGTQVTVSS | high polyreactivity |
| QVKLVESGGGLVQAGGSLRLSCAASGFTFTQYGLGWNRQAPGKEREFVATIRFSGDNTYYADSVKGRFTISRDNAKNTVYLQMNSLKPEDTAVYYCNADNRAFFVYPVSKRYDSWGQGTQVTVSS | low polyreactivity |
| QVKLVESGGGLVQAGGSLRLSCAASGLIFDTYAMGWYRQAHGKERELVADITLSGGSTYYADSLKGRFTISRDTAKNTVYLQMNSLKPVDTAVYYCAADSVSLFYWDQRYPDEYDYWGQGTQVTVSS | low polyreactivity |
| QVKLVESGGGLVQAGGSLRLSCAASGNTLYFNAMGWYRQAPGKERELVADISWGGGSTDYADSVKGRFTISRDNAKNTVYLQMNSLKPEDTAVYYCAADILSLPEYDYWGQGTQVTVSS | low polyreactivity |
| QVKLVESGGGLVQAGGSLRLSCAASGRIFSYNAMGGYRPEPGKESEVVAAMSDGGGRTYYADSVKGRFTISRDNAKNTVYVQMNSLKPEDTAVYYCAARYSVYYFGQRNGRYGYWGQGTQVTVSS | high polyreactivity |
| QVKLVESGGGLVQAGGSLRLSCAASGRNFYVYGMGWYRQAPGKERELVASITYRCGSTSYADSVKGRFTISRDNAKNTVYLQMNSLKPEDTAVYYCNADTYYRSDYWGQGTQVTVSS | high polyreactivity |
| QVKLVESGGGLVQAGGSLRLSCAASGRTVTRNTMGWYRQAPGKERELVAAISRSGGGTYYADSVKGRFTISRDNAKNTVYLQMNSLKPEDTAVYYCAAVPQNYRNFDGYNYWGQGTQVTVSS | high polyreactivity |
| QVKLVESGGGLVQAGGSLRLSCAASGSIFSRNTMGWSRQEPGKERELVAGISSSGSRTYYADSVKGRFTISRDNAKNTVYLQMNSLKPEDTAVYYCAKAWPDHWYSRYDYWGQGTQLTVSS | low polyreactivity |
| QVKLVESGGGLVQAGGSLRLSCAASGSIVVRYTMGWYRQAPGKERELVAAIYWGGGSTYYADSVKGRFTISRDNAKNTVYLQMNSLKAEDTAVYYCKKRYILLYDYWGQGTQVTVSS | low polyreactivity |
| QVKLVESGGGLVQAGGSLRLSCAASGSTFHVYAMGWYRQEPGKESELVAGITSSGYSTYYADSVKGRFTISRDNAKNTVYLKMNSLKPEDTAFYYCNADIRGPYYYHRYDYWGQGTQVTVSS | low polyreactivity |
